# Test results as given in article PMC4452428 (Biotechnology and bioengineering, 2015).
# B1: P99 beta-lactamase (protein, UniProt P05364 21-381, looked up)
# Beta-lactamase: TPVSEKQLAEVVANTITPLMKAQSVPGMAVAVIYQGKPHYYTFGKADIAANKPVTPQTLFELGSISKTFTGVLGGDAIARGEISLDDAVTRYWPQLTGKQWQGIRMLDLATYTAGGLPLQVPDEVTDNASLLRFYQNWQPQWKPGTTRLYANASIGLFGALAVKPSGMPYEQAMTTRVLKPLKLDHTWINVPKAEEAHYAWGYRDGKAVRVSPGMLDAQAYGVKTNVQDMANWVMANMAPENVADASLKQGIALAQSRYWRIGSMYQGLGWEMLNWPVEANTVVEGSDSKVALAPLPVAEVNPPAPPVKASWVHKTGSTGGFGSYVAFIPEKQIGIVMLANTSYPNPARVEAAYHILEALQ
# Key:
# [1] = Michaelis-Menten kinetics, colorimetric nitrocefin assay; type: biochemical; conditions: nitrocefin 10 μM to 500 μM, 96-well, triplicate
# [2] = system: MHC II alleles DRB1*0101, 0401, 0701, and 1501; conditions: IC50≥100 μM; average per protein for designs
molecule,measurement,setting,value
B1,Km,"[1]; non-linear regression, biological duplicate",80 ± 10 µM
same,kcat,"[1]; non-linear regression, enzymes purified and assayed in biological duplicate",360 ± 20 s⁻¹
same,kcat/Km,[1]; biological duplicate,4.6 ± 0.7 s^−1μM^−1
same,non-binding peptides out of 36,[2],13/36
